Experimental data as given in patent publication US20090010941A1, “Methods for treating HIV” (priority 2007, published 2009).
Entries after “also recorded” stand apart in the source; their conditions may differ. Counter-ions that a name gives are not always drawn.

Assays:
[1] = tested on: TRAIL-R1 expression on HIV-1 infected macrophages; assay type: cell-based, human
[2] = tested on: HIV-1 infected macrophages; experiment: Cell Death ELISA for histone-associated DNA fragmentation after Imatinib alone; assay type: cell-based, human; conditions: Imatinib alone 24 or 120 hours, no exogenous TRAIL, five days after infection
Experimental: ELISA for Caspase-3 cleavage (to active form) was obtained from Cell Signaling Technologies (Beverley Mass.). Briefly, 1.4×10^6 macrophages infected with WT and envelope-minus viruses were lysed according to the supplier's protocol, 1 hour after the addition of soluble recombinant Trail (100 ng ml-1). Protein content was determined by Bradford Assay (Bio-Rad, Hercules Calif.) and 220 μg of protein in 200 μl from each culture was assayed. ELISA for supernatant release of histone associated DNA fragments released after induced cell death (Roche, Nutley N.J.) was used to measure macrophage longevity. […] In some experiments an MTT assay (Sigma, St. Louis Mo.) was used to measure cell viability. Fluorescent detection of active caspases was performed by pre-treating cells with red-VAD-FMK and flow cytometry according to the manufacturer's protocol (EMD biosciences). For the measurement of apoptosis by Annexin V and propidium iodide staining in flow cytometry reagents were obtained from BioVision (Mountain View Calif.) and used according to the supplier's protocol.

[3] = tested on: Bcl-2, Mcl-1, BclXL, BimL, Bmf and cFLIP; experiment: Western blotting of pro- and anti-apoptotic proteins in the TRAIL signaling pathway; assay type: cell-based, human; conditions: HIV-1 LAI WT infected macrophages, 2 μM Imatinib 16 hours
Experimental: FIG. 11 provides a set of six protein immunoblot images. […] Protein levels of Bcl-2, Mcl-1, BClxL, BimL, Bmf and cFLIP were determined by Western blotting.
It has been shown that envelope induces over-expression of anti-apoptotic genes, Mcl-1, Bfl-1, cIAP-1, cIAP-2 and XIAP, that function in preventing mitochondrial and caspase-mediated apoptosis by TRAIL (Salvesen and Duckett, 2002; Zhang & Fang, 2005; Han et al., 2006).

[4] = in vivo; cited from earlier work
[5] = tested on: HIV-1 infected macrophages; experiment: Apoptosis by Annexin V and propidium iodide staining and flow cytometry; assay type: cell-based, human; conditions: TRAIL exposure without Imatinib treatment
[6] = tested on: HIV-1 LAI infected macrophages; experiment: Macrophage viability with increasing concentrations of TRAIL (MTT assay); assay type: cell-based, human; conditions: 16 hours
Experimental: FIG. 5. provides three graphs showing that cell viability and virus production in the presence of TRAIL requires an intact envelope gene and is augmented by M-CSF. Macrophage viability and virus production in the presence of increasing concentrations of TRAIL is shown in FIG. 5A and FIG. 5B, respectively. Four days after infection with pseudotyped HIV-1 LAI WT or Δenv viruses, macrophages were incubated with increasing concentrations of soluble TRAIL and cell viability (FIG. 5A) and virus production (FIG. 5B) determined after 16 hours by MTT assay and reverse transcriptase production, respectively. Activated CD8+ T cells suppress viral replication in macrophages via TRAIL (FIG. 5C). Macrophages were infected with pseudotyped wild-type or envelope-minus HIV-1 LAI variants and monitored for virus production in a 24 hour period after incubation with Anti-CD3/CD28 stimulated autologous CD8+ TRAIL+T lymphocytes for 4 hours. Macrophages were pre-treated for 16 hours with M-CSF neutralizing antibody or isotype control and T cells were preincubated with recombinant TRAIL-R1 or control receptor (5 μg·ml-1) for 1 hour. […]
ELISA for Caspase-3 cleavage (to active form) was obtained from Cell Signaling Technologies (Beverley Mass.). […] Protein content was determined by Bradford Assay (Bio-Rad, Hercules Calif.) and 220 μg of protein in 200 μl from each culture was assayed. […]

[7] = tested on: HIV-1 LAI; experiment: Virus production with increasing concentrations of TRAIL (reverse transcriptase); assay type: cell-based, human; conditions: 16 hours
Experimental: FIG. 5. provides three graphs showing that cell viability and virus production in the presence of TRAIL requires an intact envelope gene and is augmented by M-CSF. Macrophage viability and virus production in the presence of increasing concentrations of TRAIL is shown in FIG. 5A and FIG. 5B, respectively. Four days after infection with pseudotyped HIV-1 LAI WT or Δenv viruses, macrophages were incubated with increasing concentrations of soluble TRAIL and cell viability (FIG. 5A) and virus production (FIG. 5B) determined after 16 hours by MTT assay and reverse transcriptase production, respectively. Activated CD8+ T cells suppress viral replication in macrophages via TRAIL (FIG. 5C). Macrophages were infected with pseudotyped wild-type or envelope-minus HIV-1 LAI variants and monitored for virus production in a 24 hour period after incubation with Anti-CD3/CD28 stimulated autologous CD8+ TRAIL+T lymphocytes for 4 hours. Macrophages were pre-treated for 16 hours with M-CSF neutralizing antibody or isotype control and T cells were preincubated with recombinant TRAIL-R1 or control receptor (5 μg·ml-1) for 1 hour.
The differential sensitivity of wild type and envelope minus HIV-1 infected macrophages to TRAIL-mediated cell killing correlated with the concentration of TRAIL required to impact cell viability and virus production. […]

[8] = tested on: HIV-1 infected macrophages; experiment: Macrophage half-life in the presence of TRAIL (cell death ELISA); assay type: cell-based, human; conditions: soluble TRAIL 100 ng·ml-1
Experimental: (§1) Macrophages were infected with pseudotyped wild-type or envelope-minus HIV-1 LAI variants and monitored for virus production (FIG. 4A). At 8 days post infection, cultures were incubated with soluble TRAIL (100 ng·ml-1) and apoptosis determined by ELISA for active (cleaved) Caspase 3. […] Macrophage cultures, equally infected with pseudotyped HIV-1 LAI WT or Δenv viruses or mock infected, were examined by phase contrast microscopy after incubation with 100 ng/ml TRAIL (1 hour treatment with TRAIL followed by 5 hours incubation after removal of TRAIL). […] Eight days after infection with pseudotyped HIV-1 LAI WT or Δenv viruses, macrophages were incubated with soluble TRAIL (100 ng·ml-1) and percentage of viable cells remaining extrapolated from the level of cell death determined from ELISA. Macrophage half-life was calculated from the linear regression slope and expressed in hours+/−SD.
Macrophages are a long-lived reservoir of HIV in vivo and a source of viral rebound (reviewed in Stevenson, 2003). The evasion of apoptosis in other human viral infections contributes to viral persistence and enables the infected cell to survive in the face of a hostile microenvironment (Raftery et al., 2001; Secchiero et al., 2001; Tollefson et al. 1998; Tollefson et al. 2001). Therefore we determined the half-life of HIV-1 infected macrophages in the presence of a concentration of TRAIL capable of inducing apoptosis. […] Thus resistance to TRAIL can potentially provide a significant advantage to macrophages infected by HIV-1.
ELISA for Caspase-3 cleavage (to active form) was obtained from Cell Signaling Technologies (Beverley Mass.). Briefly, 1.4×10^6 macrophages infected with WT and envelope-minus viruses were lysed according to the supplier's protocol, 1 hour after the addition of soluble recombinant Trail (100 ng ml-1). Protein content was determined by Bradford Assay (Bio-Rad, Hercules Calif.) and 220 μg of protein in 200 μl from each culture was assayed. […]

[9] = tested on: HIV-1 infected macrophages; experiment: TRAIL-mediated apoptosis by ELISA for active (cleaved) Caspase 3; assay type: cell-based, human; conditions: HIV-1 WT infected macrophages, Day 2
Experimental: as §1
Relationship of apoptosis by TRAIL, M-CSF release and TRAIL-R1 expression in macrophages infected with pseudotyped wild type or envelope minus HIV-1 HSA viruses. In FIG. 6A, M-CSF release as a function of time was determined by ELISA. In FIG. 6B, TRAIL-R1 expression as a function of time was measured by flow cytometry. In FIG. 6C, TRAIL-mediated apoptosis in macrophages was analyzed by ELISA for active (cleaved) Caspase 3 in parallel cultures during the infection (Error bars, SD). […]

[10] = macrophages infected with pseudotyped HIV-1 LAI Δenv
[11] = macrophages infected with pseudotyped wild type HIV-1 LAI

Cc1ccc(NC(=O)c2ccc(CN3CCN(C)CC3)cc2)cc1Nc1nccc(-c2cccnc2)n1 [Imatinib, Imatinib mesylate]
TRAIL-R1 expression on uninfected macrophages ([1]; uninfected macrophages, also those in cultures of infected cells, Imatinib 16 hours): did not promote TRAIL-R1 expression
apoptosis (histone-associated DNA fragmentation) of wild-type-infected macrophages [2]: results in apoptosis of wild-type-infected macrophages; also recorded: removed the requirement for exogenous TRAIL
expression of pro- and anti-apoptotic proteins [3]: cause a shift in the expression of the proteins in favor of cellular apoptosis
bioavailability to the brain [4]: poor bioavailability to the brain

B1: exogenous M-CSF: recombinant macrophage colony stimulating factor added to macrophage cultures (protein, UniProt P09603 33-554, looked up)
Macrophage colony-stimulating …: EEVSEYCSHMIGSGHLQSLQRLIDSQMETSCQITFEFVDQEQLKDPVCYLKKAFLLVQDIMEDTMRFRDNTPNAIAIVQLQELSLRLKSCFTKDYEEHDKACVRTFYETPLQLLEKVKNVFNETKNLLDKDWNIFSKNCNNSFAECSSQDVVTKPDCNCLYPKAIPSSDPASVSPHQPLAPSMAPVAGLTWEDSEGTEGSSLLPGEQPLHTVDPGSAKQRPPRSTCQSFEPPETPVVKDSTIGGSPQPRPSVGAFNPGMEDILDSAMGTNWVPEEASGEASEIPVPQGTELSPSRPGGGSMQTEPARPSNFLSASSPLPASAKGQQPADVTGTALPRVGPVRPTGQDWNHTPQKTDHPSALLRDPPEPGSPRISSLRPQGLSNPSTLSAQPQLSRSHSSGSVLPLGELEGRRSTRDRRSPAEPEGGPASEGAARPLPRFNSVPLTDTGHERQSEGSFSPQLQESVFHLLVPSVILVLLAVGGLLFYRWRRRSHQEPQRADSPLEQPEGSPLTQDDRQVELPV
TRAIL-R1 expression ([1]; macrophages infected with an envelope defective virus, exogenous M-CSF 16 hours): down-regulated TRAIL-R1

B2: TRAIL: soluble human recombinant TRAIL (TNF-related apoptosis-inducing ligand) obtained from Axxora LLC (protein, UniProt P50591 39-281, looked up)
extracellular domain: TNELKQMQDKYSKSGIACFLKEDDSYWDPNDEESMNSPCWQVKWQLRQLVRKMILRTSEETISTVQEKQQNISPLVRERGPQRVAAHITGTRGRSNTLSSPNSKNEKALGRKINSWESSRSGHSFLSNLHLRNGELVIHEKGFYYIYSQTYFRFQEEIKENTKNDKQMVQYIYKYTSYPDPILLMKSARNSCWSKDAEYGLYSIYQGGIFELKENDRIFVSVTNEHLIDMDHEASFFGAFLVG
modifications: extracellular domain
notes: soluble human recombinant TRAIL (TNF-related apoptosis-inducing ligand) obtained from Axxora LLC
apoptosis of infected macrophages [5]: 3.9%
TRAIL concentration effecting ~50% reduction in cell viability [6, 10]: 3 ng/mL
TRAIL concentration required for ~50% reduction in viability [6, 11]: > 30 ng/mL
TRAIL concentration effecting ~50% reduction in virus output [7, 10]: 3 ng/mL
TRAIL concentration required for ~50% reduction in virus output [7, 11]: > 50 ng/mL
macrophage half-life in the presence of TRAIL ([8]; HIV-1 Δenv infected macrophages): around 36 hours
macrophage half-life in the presence of TRAIL ([8]; mock infected cultures): 81 h
macrophage half-life in the presence of TRAIL ([8]; wild type infected cultures): 110 h
TRAIL-induced active caspase 3 elevation [9]: 3 fold
